# From paper PMC6949295 (2020)
# B1: Exo70-Flag [rat] / HA-Exo84 [not stated] (parent complex)
# chain 1: MIPPQEASARRREIEDKLKQEEETLSFIRDSLEKSDQLTKNMVSILSSFESRLMKLENSIIPVHKQTENLQRLQENVEKTLSCLDHVISYYHVASDTEKIIREGPTGRLEEYLGSMAKIQKAVEYFQDNSPDSPELNKVKLLFERGKESLESEFRSLMTRHSKVISPVLVLDLISADDELEVQEDVVLEHLPESVLQDVIRISRWLVEYGRNQDFMNVYYQIRSSQLDRSIKGLKEHFRKSSSSSGVPYSPAIPNKRKDTPTKKPIKRPGRDDMLDVETDAYIHCVSAFVRLAQSEYQLLMGIIPEHHQKKTFDSLIQDALDGLMLEGENIVSAARKAIIRHDFSTVLTVFPILRHLKQTKPEFDQVLQGTAASTKNKLPGLITSMETIGAKALEDFADNIKNDPDKEYNMPKDGTVHELTSNAILFLQQLLDFQETAGAMLASQETSSSATSYNSEFSKRLLSTYICKVLGNLQLNLLSKSKVYEDPALSAIFLHNNYNYILKSLEKSELIQLVAVTQKTAERSYREHIEQQIQTYQRSWLKVTDYIAEKNLPVFQPGVKLRDKERQMIKERFKGFNDGLEELCKIQKAWAIPDTEQRDKIRQAQKSIVKETYGAFLHRYSSVPFTKNPEKYIKYRVEQVGDMIDRLFDTSA
# chain 2: MSDSGASRLRRQLESGGFEARLYVKQLSQQSDGDRDLQEHRQRVQALAEETAQNLKRNVYQNYRQFIETAREISYLESEMYQLSHLLTEQKSSLESIPLALLPAAAAGASTGEDTAGAGPRERGAAQAGFLPGPAGVPREGPGTGEEGKQRTLTTLLEKVEGCRDLLETPGQYLVYNGDLVEYEADHMAQLQRVHGFLMNDCLLVATWLPQRRGMYRYNALYPLDRLAVVNVKDNPPMKDMFKLLMFPESRIFQAENAKIKREWLEVLEETKRALSDKRRREQEEAAALRAPPPVTSKGSNPFEDEAEEELATPEAEEEKVDLSMEWIQELPEDLDVCIAQRDFEGAVDLLDKLNHYLEDKPSPPSVKELRAKVDERVRQLTEVLVFELSPDRSLRGGPKATRRAVSQLIRLGQCTKACELFLRNRAAAVHTAIRQLRIEGATLLYIHKLCHVFFTSLLETAREFETDFAGTDSGCYSAFVVWARSAMGMFVDAFSKQVFDSKESLSTAAECVKVAKEHCQQLGEIGLDLTFIIHALLVKDIQGALLSYKEIIIEATKHRNSEEMWRRMNLMTPEALGKLKEEMRSCGVSNFEQYTGDDCWVNLSYTVVAFTKQTMGFLEEALKLYFPELHMVLLESLVEVILVAVQHVDYSLRCEQDPEKKTFIRQNASFLYDTVLPVVERRFEEGVGKPAKQLQDLRNASRLLRVNPESTTSVV
# Variants of: B1
# Assay: co-immunoprecipitation (IP: HA, blot: Flag); 293T cells; parent: 0.13
row,Variant,response [relative band intensity]
1,"chain 1 S47D, chain 1 S59D, chain 1 S89D",0
